This note sets out measurements from patent US6919309B2, “Methods and compositions for inhibiting angiogenesis” (Northwestern University, priority 1997, dated 2005).

Experiment [1] relates to capillary endothelial cells. Briefly: bFGF-induced proliferation of capillary endothelial cells. Type of experiment: cell-based. The settings on record: PEDF doses of 1.0 nM or greater. The text has this: Human PEDF cDNA was engineered by polymerase chain reaction to encode a COOH-terminal hexahistidine tag, cloned into pCEP4 (Invitrogen, Carlsbad, Calif.), and transfected into human embryonic kidney cells. Recombinant PEDF was purified from the conditioned media with the Xpress Protein Purification System (Invitrogen, Carlsbad, Calif.).

Experiment [2] has as its system human dermal microvascular endothelial cells. Briefly: Endothelial cell migration assay (modified Boyden chamber), human dermal microvascular endothelial cells. Type of experiment: cell-based. The settings on record: 10 ng/ml bFGF plus PEDF; FIG. 1. On the procedure: (§1) The cells were plated on gelatinized Nucleopore membranes (5 μm pores for bovine capillary cells and 8 μm pores for other cells) in an inverted modified Boyden chamber. After two hours, the chamber was reinverted and test substances added to the top wells of each. Specifically, populations were exposed to either culture medium alone (control), 10 ng/ml bFGF, 2 nM PEDF (full length PEDF), or both 10 ng/ml bFGF (basic fibroblast growth factor) and 10 nM PEDF. The cells were then permitted to migrate for 3-4 hours. Following this, the membranes were fixed and stained, and the number of cells that had migrated were counted.
Additional truncated peptides derived from PEDF were tested for efficacy in the endothelial cell migration assay using human dermal microvascular endothelial cells (Clonetics, Cell Systems) at passage 9 in a modified Boyden Chamber, as described above, and the results are shown in FIG. 7. In FIG. 7A, the cells were exposed to the gradient of VEGF in the presence of purified recombinant PEDF (rPEDF), bacterially produced PEDF (BH) or PEDF peptides containing only amino acid residues 78-121 (44-mer) and 44-77 (34-mer) referring to SEQ ID NO:1. Neutralizing antibodies were added where shown to verify if the anti-angiogenic effect is specific to PEDF peptides and not due to contamination. Both full length PEDF preparations were used at 25 nM, neutralizing polyclonal antiserum against PEDF was used at 1:200 dilution, recombinant human VEGF (R&D Systems) at 200 pg/ml. In FIG. 7B, the cells were exposed to the gradient of VEGF in the presence of increasing concentrations of 34-mer and 44-mer peptides. The antiserum used in this experiment was not affinity purified, whereas the antiserum used in all other experiments presented herein was affinity purified.

Experiment [3] deals with endothelial cells isolated from human umbilical chords. As to the kind of experiment: Endothelial cell migration assay, endothelial cells from human umbilical chords. Format: cell-based. As to conditions: 10 ng/ml bFGF plus PEDF; FIG. 1. The procedure: The migration of different vascular endothelial cell types was determined by adding PEDF to cultured endothelial cells, specifically, endothelial cells isolated from bovine adrenal capillaries, human umbilical chords, and human dermal microvascular tissue.
as §1

Another experiment relates to retina of C57/BL6 mice. As to the kind of experiment: Hyperoxia-induced ischemic retinopathy, systemic treatment. Format: in vivo, mouse. The settings on record: day 12 through 16. The procedure: Retinopathy was induced in C57/BL6 mice by placing seven day old mice with their dams in an oxygen tent and maintaining the animals in a 75% oxygen/25% nitrogen environment until day twelve. On day twelve, the animals were removed from the tent and placed at ambient atmosphere (21% oxygen). From day twelve through day sixteen, pups were treated via intraperitoneal injection once per day with 100 μl of either phosphate buffered saline (PBS) vehicle, or 11.2 μg or 22.4 μg PEDF in PBS. Pups were anesthetized with Metaphane and perfused with 1 ml of fixative (4% paraformaldehyde/100 mM sodium phosphate buffer (pH 7.2)/4% sucrose) through the left ventricle of the heart. Eyes were removed and placed in fixative, embedded in paraffin, and processed for histologic examination. Cross sections of the eye were made, stained with hematoxylin-phloxine-saffarin (HPS), and the number of endothelial cell nuclei crossing the inner limiting membrane of the retina were counted in one cross section that contained the cornea, lens, retina and optic nerve. FIG. 16A illustrates retinopathy in the eye of a PBS treated animal, the box surrounds a vascular tuft that has penetrated the inner limiting membrane of the retinal in the low power picture. FIGS. 16C and 16D illustrate the eye of a PEDF treated mouse, no vascular tufts are present. The # of endothelial cell nuclei were quantified (Table 3).

In another experiment the test system is avascular rat cornea. Briefly: Rat cornea neovascularization assay (implanted pellets). Type of experiment: in vivo. The procedure:
FIG. 13, comprising FIGS. 13A and 13B, is a table and a series of images of photomicrographs depicting inhibition of neovascularization by purified PEDF and by PEDF present naturally in normal human vitreous and cornea. FIG. 13A: Recombinant (rPEDF) or purified (pPEDF) PEDF (8 nM), PEDF peptide 327 to 343 (299 μg/ml), undiluted vitreous fluid, or corneal extract (used at 200 μg of protein per milliliter) was incorporated with vehicle (PBS) and the indicated additions into Hydron pellets that were implanted into the avascular rat cornea. Vigorous ingrowth of vessels from the limbus toward the pellet by 7 days was scored as a positive response (Polverini, et al, 1991, Methods Enzymol 198:440). Where noted, anti-PEDF linked to protein A beads was used to remove PEDF from vitreous fluid and corneal extract. FIG. 13B, comprising FIGS. 13B-1 through 13B-8: Representative photos of corneal responses from FIG. 13A shown at X13 magnification. PEDF antipeptide antibody (anti-PEDF) was raised in rabbits against a peptide containing pEDF amino acids 327-343, conjugated to Keyhole-limpet hemocyanin, and affinity-purified on a peptide column. Polyclonal antisera against bacterial recombinant PEDF/EPC-1 (anti-EPC-1) is described in DePaolo, et al. (1995, Exp. Cell Res. 220:178) and the antiangiogenic protein angiostatin is descried in O'Reilly, et al. ([…], Cell 79:315). Purchased reagents included neutralizing anti-VEGF (Genzyme Cambridge, Mass.), pan antibodies to TGFβ, and all angiogenic inducers (R&D Systems, Minneapolis, Minn.) except lysophosphatidic acid (Sigma). All proteins and antibodies were extensively dialyzed against PBS before use in biological assays. FIG. 13B-1 corresponds to sample 2 of FIG. 13A; FIG. 13B-2 corresponds to sample 12 of FIG. 13A, FIG. 13B-3 corresponds to sample 3 of FIG. 13A; FIG. 13B-4 corresponds to sample 11 of FIG. 13A; FIG. 13B-5 corresponds to sample 8 of FIG. 13A; FIG. 13B-6 corresponds to sample 16 of FIG. 13A; FIG. 13B-7 corresponds to sample 6 of FIG. 13A; FIG. 13B-8 corresponds to sample 17 of FIG. 13A. […]

Where [4] appears, read: PEDF 8 nM in pellet, seven days.

Marks after values point to notes of the source that are not given here.

B1: PEDF: full length pigment epithelium derived growth factor, SEQ ID NO:1; purified from WERI-Rb-27R medium or recombinant histidine-tagged (protein, listed as Homo Sapiens)
chain: MQALVLLLCIGALLGHSSCQNPASPPEEGSPDPDSTGALVEEEDPFFKVPVNKLAAAVSNFGYDLYRVRSSMSPTTNVLLSPLSVATALSALSLGADERTESIIHRALYYDLISSPDIHGTYKELLDTVTAPQKNLKSASRIVFEKKLRIKSSFVAPLEKSYGTRPRVLTGNPRLDLQEINNWVQAQMKGKLARSTKEIPDEISILLLGVAHFKGQWVTKFDSRKTSLEDFYLDEERTVRVPMMSDPKAVLRYGLDSDLSCKIAQLPLTGSMSIIFFLPLKVTQNLTLIEESLTSEFIHDIDRELKTVQAVLTVPKLKLSYEGEVTKSLQEMKLQSLFDSPDFSKITGKPIKLTQVEHRAGFEWNEDGAGTTPSPGLQPAHLTFPLDYHLNQPFIFVLRDTDTGALLFIGKILDPRGP
As to B1, the “inhibition of bFGF-induced proliferation” value in experiment [1] stood at 40%. The “migration, percentage of maximal migration” value in experiment [2] and in experiment [3] was “considerably less migration was observed” in each case. For the same molecule, the “Mean number of endothelial cell nuclei crossing ILM into vitreous per cross section” value with retina of C57/BL6 mice (11.2 μg PEDF/day intraperitoneal) is reported as 18.6 +/− 2.2*; in the experiment with retina of C57/BL6 mice (22.4 μg PEDF/day intraperitoneal) it was 18.2 +/− 2.5*. Further, in the experiment on avascular rat cornea (Hydron pellets, 7 days, FIGS. 13A and 13B), the “effect on neovascularization in the rat cornea” value is “potently inhibited neovascularization”. For the same molecule, in the experiment on avascular rat cornea (setting [4]), the “number of corneas with angiogenesis/number of corneas implanted, With bFGF” value is recorded as 0/3. Further, the “number of corneas with angiogenesis/number of corneas implanted, Without bFGF” value with avascular rat cornea (setting [4]) is reported as 0/3.
